The record followed here is US9487562B2, “Stabilized polypeptides as regulators of RAB GTPase function” (President and Fellows of Harvard College, priority 2011, dated 2016).

Broadly, the IC50 is the concentration at which inhibition is half-maximal. Low readings indicate greater potency in that assay, high ones weaker potency in that assay. The term Tm denotes the temperature at the midpoint of the melting transition. One may read the Kd as the equilibrium constant for the complex coming apart. A higher Kd goes with weaker binding.

Entries after “also recorded” stand apart in the source; their conditions may differ. Bridge positions count the residues as written; N and C are the ends. Square brackets hold non-standard residues; d marks the D form. Ends that are not written are not given here. * marks the point of attachment. FITC = O=C1OC2(c3ccc(O)cc3Oc3cc(O)ccc32)c2ccc(NC(=S)*)cc21; Met(O) = CS(=O)CC[C@H](N)C(=O)O; S5 = C=CCCC[C@](C)(N)C(=O)O Bounds are passed on as bounds.

Data set [1] concerns the target T1, RAB11 (Homo sapiens, UniProt P62491).
T1 construct: RAB11 (residues 1-175) was expressed with an N-terminal GST-tag with an internal thrombin cleavage site; GST (thrombin cleavage site between tag and RAB11) (N); made in house; host or cells: Escherichia coli BL21(DE3) pLysS
T1 sequence (P62491 1-175): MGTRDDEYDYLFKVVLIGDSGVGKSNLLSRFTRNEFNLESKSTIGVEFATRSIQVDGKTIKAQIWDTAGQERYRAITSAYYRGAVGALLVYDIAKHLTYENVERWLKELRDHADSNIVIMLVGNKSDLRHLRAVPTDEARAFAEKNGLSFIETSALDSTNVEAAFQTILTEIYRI
In words: Fluorescence polarization binding of FITC-FIP/FITC-RFP peptides to RAB11. Particulars: for binding affinity to RAB11: FITC peptide 15 nM, fluorescence polarization; for binding to RAB11: in the presence and absence of GTP, FITC peptide. As to the method:
Fluorescence polarization (FP) was used to measure FIP peptide binding to RAB11 and RAB25 proteins. […] This indicated specificity in the binding measurement, as this subtle change would be expected to perturb binding.
(§1) RAB11/25 protein binding assays were performed by incubating FITC-FIP or FITC-RFP (stapled FIP derivatives) peptides (15 nM) with three-fold dilutions of recombinantly-expressed, purified RAB11, RAB25 or a various epitope-tagged version of either in protein-binding buffer (25 mM Tris-HCl, pH 8.0, 150 mM NaCl, 1 mM EDTA, 1 mM DTT, 10 mM MgCl2, 10 mM GTP). Dilutions and incubations were made in 384-well, black flat-bottom plates (Corning) to a total volume of 40 μL and equilibrated for 60 minutes. Polarization was measured on a Spectramax-M5 multi-label plate reader with λex=485 nm and λem=525 nm. Polarization was calculated according to the standard equation: P=(V−H)/(V+H), where P=polarization, V=vertical emission intensity and H=horizontal emission intensity. Kd values were determined by fitting data to a variable-slope sigmoidal binding curve using Prizm 4 graphing software.
(§2) RAB11 and RAB25 proteins were expressed and purified in Escherichia coli strain BL21(DE3) pLysS (Stratagene) as epitope-tagged fusion proteins in various vectors (Novagen). RAB25 (residues E7-Q180) was expressed with an N-terminal GST- and hexahistidine tag with internal thrombin and TEV cleavage sites (GST-H6-RAB25) (SEQ ID NO: 86) in a pET41-1 vector (Novagen) or with an N-terminal hexahistidine tag alone with an internal thrombin cleavage site (H6-RAB25) (SEQ ID NO: 86) in a pET28 vector (Novagen). FIP3 protein (residues 649-756) was expressed with an N-terminal GST-tag with an internal TEV cleavage site (GST-FIP3) in a pGEX6p-1 vector (Novagen). RAB11 (residues 1-175) was expressed with an N-terminal GST-tag with an internal thrombin cleavage site in a pGEX5x-1 vector (Novagen). Transformed bacteria was grown at 37° C. until an OD600=0.8 was reached, at which point the culture was induced with 0.5 mM isopropyl β-D-1-thiogalactopyranoside (IPTG). Induced cells were grown at 30° C. for 6 hours, pelleted and lysed in binding buffer (25 mM Tris-HC;, pH 8.0, 150 mM NaCl, 1 mM EDTA, 1 mM DTT, 10 mM MgCl2, 10 mM GTP) supplemented with a complete protease inhibitor tablet (Roche) by sonication on ice. The lysate was centrifuged at 14,000 rpm to clear insoluble matter prior to loading onto Ni-NTA resin (Qiagen) for hexahistdine-tagged constructs or on GST-bind agarose resin (Biorad) for GST-tagged constructs. The protein-bound bead slurry was washed 4× with ˜20 mL of buffer and retained protein was eluted with either 250 mM imidazole or 20 mM glutathione in buffer for H6-(SEQ ID NO: 86) or GST-proteins, respectively. The eluent was concentrated using a 30 kD exclusion filter and purified by size-exclusion chromatography on a Superdex-75 Column (Amersham Pharmacia Biotech). Fractions containing purified protein were pooled, concentrated and dialyzed into binding buffer or other similar buffer for specific biochemical assays.
In general terms: Polarisation of emitted light reports the rotation of a fluorescent probe.

The target of data set [2] is T2, RAB25 (Homo sapiens, UniProt P57735).
T2 construct: RAB25 (residues E7-Q180) was expressed with an N-terminal GST- and hexahistidine tag; made in house; host or cells: Escherichia coli BL21(DE3) pLysS
T2 sequence (P57735 7-180): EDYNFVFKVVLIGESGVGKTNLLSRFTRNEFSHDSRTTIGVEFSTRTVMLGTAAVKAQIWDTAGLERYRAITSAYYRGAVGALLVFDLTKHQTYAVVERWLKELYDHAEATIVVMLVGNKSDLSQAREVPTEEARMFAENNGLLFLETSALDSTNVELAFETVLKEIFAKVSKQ
The experiment in a line: Fluorescence polarization binding of FITC-FIP/FITC-RFP peptides to RAB25. Particulars: FITC peptide 15 nM. As to the method:
as §1, §2

Data set [3] deals with RAB25 (UniProt P57735). The experiment in a line: ALPHAscreen competition.
A further data set addresses GST-H6-RAB25 (UniProt P57735). In words: AlphaScreen competition. A general note: Alpha assays give light when donor and acceptor beads are brought close together.
The test system of data set [4] is RAB25. In words: Fluorescence polarization binding of FITC-FIP/FITC-RFP peptides to RAB25. As to the method: as §1, §2
Data set [5] in a line: Circular dichroism spectra / percent helicity. The format is physicochemical. Particulars: 20° C. in water, peptides at 50 μM. As to the method:
We next investigated the structural stability of the RFPs by obtaining circular dichroism (CD) spectra for each peptide. All measurements were made at 20° C. in water with peptides at 50 μM. […] By comparison, stapled FIP peptides (RFPs) show helical CD spectra indicated by minima at approximately 208 and 222 nm (FIG. 11B).
A circular dichroism spectrometer (Jasco J-710, Japan) was used to determine the α-helical content of all peptides. Peptides were dissolved in water to a final concentration of 50 μM in a quartz cuvette with a path length of 1 cm. Absorbance values were taken at 1 nm intervals between 190 and 260 nm for buffer alone and for peptide solutions. The background (buffer) spectrum was subtracted from experimental spectra, which were subsequently subjected to baseline-normalization and curve-smoothing within the spectrometer software. Percent-helicity was calculated from the absorbance at 222 nm using helical models as previously reported in Chen Y H et al., Biochemistry, 13, 3350-9 (1974).

The nature of data set [6]: Peptide thermal stability by CD at 222 nm. The class given is physicochemical. Particulars: CD at 222 nm over 10-90° C. As to the method: Peptide thermal stability was measured by scanning the peptide CD at 222 nm over a temperature range (10-90° C.). A sigmoidal unfolding curve was apparent for helices of unmodified FIP peptides (FIP4) with a Tm of ˜34° C. (FIG. 12A).
Peptide thermal stability experiments were performed in a similar manner to circular dichroism experiments in Example 5. Peptide solutions were cooled to 10° C. in a temperature controlled CD-chamber and circular dichroism absorbance at 222 nm was measured at 1 degree intervals while the solution was heated to 90° C. 222 nm CD values were plotted as a function of temperature and fitted to a sigmoidal denaturation curve, with the half-maximal temperature representing the Tm.

Data set [7] deals with RAB11 (UniProt P62491). In words: fluorescence polarization.
Data set [8] deals with RAB25 (UniProt P57735). The experiment in a line: fluorescence polarization.
A further data set has as its target GST-RAB11 (UniProt P62491). In words: … titration (hook effect), approximately 10 nM GST-RAB11.
In data set [9] the target is T3, RAB25 (UniProt P57735 7-180).
T3 construct: range 7-180; Target of the fluorescence polarization assays; also called H6-RAB25
T3 sequence (looked up): T2 sequence (P57735 7-180)
In words: fluorescence polarization (FIG. 19B, RAB25); reference peptide not named. As to the method: as §1, with “MgCl_2,” for “MgCl2,”, “µL” for “μL”, “$\lambdaex$=485” for “λex=485”, “$\lambdaem$=525” for “λem=525”, “K_d” for “Kd”

With “FIP1: unmodified RAB family interacting protein 1 (class I) peptide (KKEFQVRELEDYIDNLLVRVMEETPNILRIPA) [reference compound]”, the “binding affinity to RAB11” value with RAB11 [1] was “little or no binding”. The “binding affinity to RAB25” value with RAB25 [2] is “little or no binding”.

“FIP2: unmodified RAB family interacting protein 2 peptide (ERDTHIRELEDYIDNLLVRVMEETPSILRVPY) [reference compound]”: the “binding affinity to RAB11” value in the data set with RAB11 [1] is reported as “little or no binding”. The “binding affinity to RAB25” value with RAB25 [2] was “little or no binding”. With “FIP3 protein (from UniProt O75154 649-756)”, the results for the IC50 with RAB25 [3] and with GST-H6-RAB25 were 10.1 µM and 10 µM, respectively.

Molecule FIP3(726-56) yielded an IC50 in the data set with RAB25 [3] of 14.1 µM.

Consider “FIP4: wild-type unmodified FIP4 peptide (EQEEINFRLRQYMDKIILAILDHNPSILEIKH) [reference compound]”, for which, in the data set with RAB11 [1], the “binding affinity to RAB11” value is listed as “micromolar”. Further, the “binding affinity to RAB25” value in the data set with RAB25 [2] is reported as “micromolar”. In the data set on RAB25 [4], the “relative affinity RAB11 versus RAB25 (selectivity)” value is on record as “tighter binding to RAB11 than RAB25”. For the same molecule, the “CD curve shape / secondary structure” value in data set [5] is given as “partially unfolded/helical structure”. Besides, in data set [6], the Tm was about 34 °C. As for “FITC-RFP1-Ox: chemical derivative of FITC-RFP1 containing an oxidized methionine at a critical hydrophobic interaction site with RAB11 ({FITC}-KQEEINFRLQDYIDRIIVAI[Met(O)]ETNPSILEVK)”, the “binding to RAB11” value in the data set with RAB11 [1] was “decreased binding; also recorded: dose-dependent binding”. On the same count and under the same terms, in the case of “FITC-RFP1: unmodified FIP3 peptide conjugated to FITC ({FITC}-KQEEINFRLQDYIDRIIVAIMETNPSILEVK)” it was “dose-dependent binding”. For “RFP17: stapled FIP peptide of second design set, SEQ ID NO: 78 (FIG. 7, top to bottom) (RINFRLQN[S5]IDR[S5]IVRIFETNPSILEVK; staple 9-13; not fully specified (C-terminus))”, the “bias for RAB11 versus RAB25” value with RAB11 [1] (ratio of affinities RAB11 vs RAB25) is given as “equivalent affinity”. Further, the midpoint of thermal melting (Tm) in data set [6] stood at 54 °C. As to “RFP24: stapled FIP peptide containing an E-R mutation to increase overall charge, SEQ ID NO: 82 (RINFRLQN[S5]IDR[S5]IVRIFETNPSILRVK; staple 9-13; not fully specified (C-terminus))”, the “binding affinity to RAB25” value in the data set with RAB25 [2] is “retained binding affinity”.

Turning to “RFP31: triple-alanine mutant negative control, SEQ ID NO: 84 (RINFRLQNXIDRXAARIAETNPSILEVK; not fully specified; hydrocarbon staple)”, the “binding affinity to RAB11” value with RAB11 [1] is “negligible affinity”. The “binding affinity to RAB25” value with RAB25 [2] was “negligible affinity”. As for unmodified FIP3 peptide, the Kd in the data set with RAB11 [7] was 1.7 µM; with RAB25 [8], over 5 µM.

B1: unmodified FIP2 peptide (peptide)
peptide: ERDTHIRELEDYIDNLLVRVMEETPSILRVPY
modifications: also: N-terminal FITC (FP) or biotin (ALPHASCREEN)
In the data set with GST-RAB11, B1 gave a concentration of biotinylated peptide at maximum signal of 40 nM.

B2: RFP31 (peptide)
peptide: RINFRLQN[S5]IDR[S5]AARIAETNPSILEVK
modifications: staple 9-13; also: N-terminal cap differs by assay: FITC or diethyleneglycol-biotin
notes: Negative control in which the I/V/M contact residues are changed to alanine; also called triple-alanine mutant negative control
As for B2, in the data set with RAB25 [9], the “fold decrease in binding affinity” value was about 100 fold.
